Reference: patent US20210139610A1, “COMPOSITIONS AND METHODS FOR MEDIATING EPS” (priority 2018, published 2021)
“Also recorded” adds a separate entry of the source.

Assays:
[1] = system: Non-typeable Haemophilus influenzae biofilms; test: NTHI in vitro biofilm formation, additive present from seeding (LIVE/DEAD, CLSM, COMSTAT); type: cell-based; conditions: DNase (Pulmozyme) added at seeding
Procedure: FIG. 14: Non-typeable Haemophilus influenzae biofilms were grown for 40 h in supplemented BHI medium containing additives as indicated below each bar in 8 well chambered coverglass slides at 37° C. and 5% CO2. Biofilms were washed, stained with LIVE/DEAD®, fixed, and imaged by CLSM. Biofilm parameters were quantified using COMSTAT software.
Dicyclohexylamine inhibits spermidine synthase via a competitive inhibition mechanism, i.e. through binding to the same site on the protein as the putrescine substrate. Applicants therefore hypothesized that dicyclohexylamine would inhibit NTHi biofilm development. […]

[2] = target: T1, DNABII-polyamine dependent DNA structures (Haemophilus influenzae, UniProt P43722); test: EPS scaffold mimetic (gDNA + HU + spermidine) structures, CLSM; type: biochemical; conditions: gDNA 2 μg/ml + HU + spermidine; Pulmozyme treatment
T1 sequence (P43722 whole entry, looked up): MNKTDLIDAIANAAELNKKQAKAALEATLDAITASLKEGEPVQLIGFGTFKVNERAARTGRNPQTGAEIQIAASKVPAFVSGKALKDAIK
Procedure: FIGS. 4A-4B: Anti-DNABII disrupts DNABII-polyamine (PA) dependent structures. (FIG. 4A) DNA structures were formed by incubating spermidine (300 μM) and HU (1 μM) in buffer that contained genomic DNA (gDNA; 2 μg/ml) for 40 h. Immunofluorescence CLSM images of DNABII-polyamine dependent DNA structures. Probed for DNABII proteins (white; indicated on the right side of the image) and counterstained with DAPI (white; indicated on the left side of the image). DNABII polyamine dependent DNA structures incorporate DNABII proteins. (FIG. 4B) EPS structures were formed as in (FIG. 4A) for 24 h and treated for additional 16 h with 1:50 dilution of DNABII antiserum (indicated below the image). Fluorescence CLSM images stained with DAPI (white). DNABII-polyamine dependent DNA structures require DNABII proteins.
FIG. 45: Polyamines and DNABII proteins stimulate Z-DNA, which is DNAse resistant. Immunofluorescence images of EPS scaffold mimetic formed de novo by addition of DNABII protein (HUNTHI, 500 nM) and spermidine (300 μM) to purified genomic DNA (2 μg/ml) and incubation at 37° C. for 16 h. […]
Applicants hypothesized that DNABII and polyamines interact with eDNA synergistically to confer DNase resistance to mature biofilms. […] Degradation was assessed by agarose gel electrophoresis and UV illumination. […]

[3] = system: Z-DNA and B-DNA in the NTHI biofilm extracellular matrix; test: Immunofluorescence CLSM for Z-DNA / B-DNA in NTHI biofilms; type: cell-based, Non-typeable Haemophilus influenzae; conditions: DNase (Pulmozyme; 5 units) at 24 h, read at 40 h
Procedure: FIG. 31: DNase degrades B-DNA, but not Z-DNA, within the biofilm extracellular matrix. DNase (Pulmozyme; 5 units) was added at 24 h after biofilm seeding to in vitro pre-formed NTHI biofilms.
FIG. 37: HMGB1 destabilizes Z-DNA structures in the biofilm extracellular matrix. Non-typeable Haemophilus influenzae biofilms were grown in supplemented BHI media in 8 well chambered coverglass slides at 37° C. and 5% CO2. After 24 h, biofilms were treated as indicated above. After 40 h, biofilms were washed, probed with primary antibodies directed against Z-DNA (light gray dots), a fluorescent secondary antibody, stained with DAPI (gray regions), and visualized via fluorescence microscopy.
FIGS. 50A-50B: Equilibrium shift of B-DNA to Z-DNA conversion alters biofilm formation. NTHI biofilms formed for 24 h were incubated with cerium chloride (CeCl3) or chloroquine for an additional 16 h and were probed with naive or anti-Z-DNA (white) by immunofluorescence CLSM.
FIGS. 51A-51B: Equilibrium shift of B-DNA to Z-DNA conversion alters biofilm formation. NTHI biofilms formed for 24 h were incubated with cerium chloride (CeCl3) (FIG. 51A) or chloroquine (FIG. 51B) for an additional 16 h. Z-DNA was measured by IF and CLSM using anti-Z-DNA and cells were stained with the membrane stain FM4-64. Bars represent the SEM. Statistical significance compared to control was assessed by paired t-tests, *P<0.05, **P<0.01.

genomic DNA = test: Spermidine sensitivity of nucleases on genomic DNA; type: biochemical; conditions: Spermidine titrated from 10 μM-10 mM
[4] = system: Biofilms formed for 24 h by the indicated bacteria (Kp=K. pneumoniae); test: B-DNA / Z-DNA abundance after DNase in 24 h biofilms of the indicated bacteria (ImageJ fluorescence ratio); type: cell-based; conditions: Pulmozyme 40 U/ml for 16 h
Procedure: FIGS. 48A-48B: Z-DNA in biofilms forms a nuclease-resistant scaffold. (FIG. 48A) Biofilms formed for 24 h by the indicated bacteria (Kp=K. pneumoniae) were incubated with DNase (Pulmozyme®; 40 U/ml) for an additional 16 h. Biofilms were then probed with anti-B-DNA (dark gray) and anti-Z-DNA (white) antibodies and counterstained with the bacterial cell membrane stain FM4-64™ (not shown). (FIG. 48B) Changes in abundance of B-DNA or Z-DNA were quantified using ImageJ by calculation of the ratio of fluorescence intensity of B-DNA or Z-DNA after DNase addition divided by the fluorescence intensity in the absence of DNase (Control). Fluorescence intensity was normalized to the fluorescence signal of FM4-64™-stained cells. Bars represent the SEM. Statistical significance compared to Control (no DNase, dotted line) was assessed by paired t-tests, *P<0.05; ****P<0.0001.

B1: DNase: Pulmozyme, a recombinant human DNase used for management of cystic fibrosis patients (protein, UniProt P24855 23-282, looked up)
Deoxyribonuclease-1: LKIAAFNIQTFGETKMSNATLVSYIVQILSRYDIALVQEVRDSHLTAVGKLLDNLNQDAPDTYHYVVSEPLGRNSYKERYLFVYRPDQVSAVDSYYYDDGCEPCGNDTFNREPAIVRFFSRFTEVREFAIVPLHAAPGDAVAEIDALYDVYLDVQEKWGLEDVMLMGDFNAGCSYVRPSQWSSIRLWTSPTFQWLIPDSADTTATPTHCAYDRIVVAGMLLRGAVVPDSALPFNFQAAYGLSDQLAQAISDHYPVEVMLK
[1]
  NTHI biofilm prevention (average thickness, biomass): significant reduction in average thickness and biomass of NTHI and UPEC biofilms; also recorded: can prevent formation of
[2]
  effect of DNase on EPS scaffold mimetic structures: DNA structures were resistant to DNase; also recorded: selectively eliminated B-DNA whereas Z-DNA remained intact
[3]
  B-DNA form eDNA in NTHI biofilm matrix: degrades B-DNA form eDNA structures
  Z-DNA form eDNA in NTHI biofilm matrix: reveals extensive Z-DNA form eDNA
Genomic DNA
  Spd inhibition: spermidine concentration where nuclease was reduced to <10% activity on genomic DNA: 300 µM
[4]
  B-DNA abundance after DNase: B-DNA is degraded
  Z-DNA abundance after DNase: Z-DNA is resistant
